Experimental data taken from US10472652B2, “Chemical engineering processes and apparatus for the synthesis of compounds” (TEEWINOT T[…], priority 2013, dated 2019).

T1: THCA synthase (Cannabis sativa, UniProt Q8GTB6)
T1 construct: His-tag (C); made in house; host or cells: Pichia pastoris (PichiaPink, pPink-HC vector), secreted into the medium; cell-free T3 supernatant used
T1 sequence (Q8GTB6 29-545): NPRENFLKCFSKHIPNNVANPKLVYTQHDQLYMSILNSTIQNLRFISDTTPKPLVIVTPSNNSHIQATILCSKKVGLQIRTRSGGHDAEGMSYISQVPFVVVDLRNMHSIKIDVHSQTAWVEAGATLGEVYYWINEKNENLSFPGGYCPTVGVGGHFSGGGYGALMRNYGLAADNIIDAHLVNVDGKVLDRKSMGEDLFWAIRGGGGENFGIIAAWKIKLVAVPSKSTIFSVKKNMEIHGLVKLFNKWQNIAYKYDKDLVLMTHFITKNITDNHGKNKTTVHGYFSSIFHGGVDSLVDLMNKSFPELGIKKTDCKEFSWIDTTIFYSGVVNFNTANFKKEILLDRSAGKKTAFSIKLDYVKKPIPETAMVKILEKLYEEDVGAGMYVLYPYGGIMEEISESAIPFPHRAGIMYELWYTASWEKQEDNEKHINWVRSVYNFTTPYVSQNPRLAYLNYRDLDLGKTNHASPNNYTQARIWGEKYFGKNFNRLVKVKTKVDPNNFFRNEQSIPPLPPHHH

B1: Pme THC #5: cell free supernatant with THCA synthase from a pPink yeast colony transformed with Pme I linearized THCA synthase plasmid (protein, UniProt Q8GTB6 29-545, looked up)
Tetrahydrocannabinolic acid …: T1 sequence (Q8GTB6 29-545)
modifications: yeast culture supernatant
notes: cell free supernatant with THCA synthase from a pPink yeast colony transformed with Pme I linearized THCA synthase plasmid
B2: Pme THC(2) #2A: cell free supernatant with THCA synthase from a pPink yeast colony transformed with Pme I linearized THCA synthase plasmid (protein, UniProt Q8GTB6 29-545, looked up)
Tetrahydrocannabinolic acid …: T1 sequence (Q8GTB6 29-545)
modifications: yeast culture supernatant
notes: as for B1
B3: Spe THC #4: cell free supernatant with THCA synthase from a pPink yeast colony transformed with Spe I linearized THCA synthase plasmid (protein, UniProt Q8GTB6 29-545, looked up)
Tetrahydrocannabinolic acid …: T1 sequence (Q8GTB6 29-545)
modifications: yeast culture supernatant
notes: cell free supernatant with THCA synthase from a pPink yeast colony transformed with Spe I linearized THCA synthase plasmid
B4: Pme THC(2) #1: cell free supernatant with THCA synthase from a pPink yeast colony transformed with Pme I linearized THCA synthase plasmid (protein, UniProt Q8GTB6 29-545, looked up)
Tetrahydrocannabinolic acid …: T1 sequence (Q8GTB6 29-545)
modifications: yeast culture supernatant
notes: as for B1
B5: Pme THC(3) #11: cell free supernatant with THCA synthase from a pPink yeast colony transformed with Pme I linearized THCA synthase plasmid (protein, UniProt Q8GTB6 29-545, looked up)
Tetrahydrocannabinolic acid …: T1 sequence (Q8GTB6 29-545)
modifications: yeast culture supernatant
notes: as for B1
B6: Pme THC(2) #36: cell free supernatant with THCA synthase from a pPink yeast colony transformed with Pme I linearized THCA synthase plasmid (protein, UniProt Q8GTB6 29-545, looked up)
Tetrahydrocannabinolic acid …: T1 sequence (Q8GTB6 29-545)
modifications: yeast culture supernatant
notes: as for B1
B7: Pme THC(3) #1: cell free supernatant with THCA synthase from a pPink yeast colony transformed with Pme I linearized THCA synthase plasmid (protein, UniProt Q8GTB6 29-545, looked up)
Tetrahydrocannabinolic acid …: T1 sequence (Q8GTB6 29-545)
modifications: yeast culture supernatant
notes: as for B1
B8: Spe THC #22: cell free supernatant with THCA synthase from a pPink yeast colony transformed with Spe I linearized THCA synthase plasmid (protein, UniProt Q8GTB6 29-545, looked up)
Tetrahydrocannabinolic acid …: T1 sequence (Q8GTB6 29-545)
modifications: yeast culture supernatant
notes: as for B3
B9: Pme THC(3) #20: cell free supernatant with THCA synthase from a pPink yeast colony transformed with Pme I linearized THCA synthase plasmid (protein, UniProt Q8GTB6 29-545, looked up)
Tetrahydrocannabinolic acid …: T1 sequence (Q8GTB6 29-545)
modifications: yeast culture supernatant
notes: as for B1
B10: Pme THC(3) #19: cell free supernatant with THCA synthase from a pPink yeast colony transformed with Pme I linearized THCA synthase plasmid (protein, UniProt Q8GTB6 29-545, looked up)
Tetrahydrocannabinolic acid …: T1 sequence (Q8GTB6 29-545)
modifications: yeast culture supernatant
notes: as for B1
B11: Pme THC(3) #17: cell free supernatant with THCA synthase from a pPink yeast colony transformed with Pme I linearized THCA synthase plasmid (protein, UniProt Q8GTB6 29-545, looked up)
Tetrahydrocannabinolic acid …: T1 sequence (Q8GTB6 29-545)
modifications: yeast culture supernatant
notes: as for B1
B12: Pme THC(2) #46: cell free supernatant with THCA synthase from a pPink yeast colony transformed with Pme I linearized THCA synthase plasmid (protein, UniProt Q8GTB6 29-545, looked up)
Tetrahydrocannabinolic acid …: T1 sequence (Q8GTB6 29-545)
modifications: yeast culture supernatant
notes: as for B1
B13: Pme THC(2) #41: cell free supernatant with THCA synthase from a pPink yeast colony transformed with Pme I linearized THCA synthase plasmid (protein, UniProt Q8GTB6 29-545, looked up)
Tetrahydrocannabinolic acid …: T1 sequence (Q8GTB6 29-545)
modifications: yeast culture supernatant
notes: as for B1
B14: Pme THC(2) #51: cell free supernatant with THCA synthase from a pPink yeast colony transformed with Pme I linearized THCA synthase plasmid (protein, UniProt Q8GTB6 29-545, looked up)
Tetrahydrocannabinolic acid …: T1 sequence (Q8GTB6 29-545)
modifications: yeast culture supernatant
notes: as for B1
B15: Pme THC(2) #25: cell free supernatant with THCA synthase from a pPink yeast colony transformed with Pme I linearized THCA synthase plasmid (protein, UniProt Q8GTB6 29-545, looked up)
Tetrahydrocannabinolic acid …: T1 sequence (Q8GTB6 29-545)
modifications: yeast culture supernatant
notes: as for B1
B16: Spe THC #3: cell free supernatant with THCA synthase from a pPink yeast colony transformed with Spe I linearized THCA synthase plasmid (protein, UniProt Q8GTB6 29-545, looked up)
Tetrahydrocannabinolic acid …: T1 sequence (Q8GTB6 29-545)
modifications: yeast culture supernatant
notes: as for B3
B17: Pme THC(2) #42: cell free supernatant with THCA synthase from a pPink yeast colony transformed with Pme I linearized THCA synthase plasmid (protein, UniProt Q8GTB6 29-545, looked up)
Tetrahydrocannabinolic acid …: T1 sequence (Q8GTB6 29-545)
modifications: yeast culture supernatant
notes: as for B1

Target: T1, THCA synthase
Assay: catalytic activity of THCA synthase from independent colonies of transformed pPink yeast cells (conversion of CBGA to THCA)
Format: biochemical
Conditions: 25 μl cell free supernatant of T3 sample, 100 mM citrate buffer, 10% DMSO, final pH 5.0, 2 hours at 30° C.
Protocol: After 24 hours a 100 μL of the cell sample was removed to which was added 100 μL of 40% methanol to induce enzyme production. This methanolic sample was then centrifuged at 12,000 rpm for 5 minutes and the supernatant and pellet were saved as the T1 sample. A second culture sample was obtained after a 48 hour incubation period and treated with methanol as described above. After centrifugation, the supernatant and pellet are saved as the T2 sample. At 72 hours the entire incubation mixture is treated with an appropriate volume of 40% methanol. The supernatant and pellet obtained from methanolic treatment of the culture after a 72 hour incubation period is labeled as T3. The T3 supernatant was spun through an Amicon 30 kD protein filter and analyzed for protein using an SDS-PAGE gel.
The catalytic activity of THCA synthase was measured by incubating 25 μl of the cell free supernatant from a T3 sample with 25 μl of a 1 mg/ml CBGA stock in 200 μl of a 100 mM citrate buffer at pH 4.8 having 10% DMSO for 2 hours at 30° C. The final concentration of CBGA in the reaction mixture was 0.1 mg/ml and the final pH is 5.0. Table 4 illustrates the data related to the catalytic activity of THCA synthase obtained from independent colonies of transformed pPink yeast cells, namely. pPink yeast cells that were transformed using linearized THCA synthase plasmids. Culture samples that converted greater than 20% of the substrate CBGA to product THCA were selected for scale up.

| Molecule | % Conversion of CBGA to THCA in reaction containing 0.1 mg/ml CBGA. [%] |
| --- | --- |
| B1 | 32.5 |
| B2 | 27.2 |
| B3 | 28.7 |
| B4 | 29.1 |
| B5 | 35.0 |
| B6 | 27.7 |
| B7 | 55.2 |
| B8 | 20.6 |
| B9 | 34.3 |
| B10 | 36.8 |
| B11 | 69.9 |
| B12 | 40.7 |
| B13 | 32.5 |
| B14 | 26.8 |
| B15 | 31.6 |
| B16 | 20.6 |
| B17 | 27.6 |
